Experiment [1] concerns the target T1, human Clq (human, UniProt P02745 23-245; P02746 28-253; P02747 29-245).
T1 construct: also called Clq complement; C1q
Nature of the experiment: ELISA, MAb coated on plate, human Clq in solution, detected with anti-human Clq peroxidase conjugate. As to the method:
(§1) The Binding of Human Clq to MAbs was assessed by an ELISA binding assay. The 96-well plates (Nunc) were coated overnight at 4° C. with varying MAb concentrations. After washing, the plates were blocked with PBS-5% BSA for 1 h, and incubated for 1 h with 0.2 μg/ml of recombinant human Clq (Abd Serotec) or 2.5 μl of natural human complement (Sigma). Then, 100 μl of a 1/500 dilution of sheep anti-human Clq peroxidase-conjugated Ab (Abd Serotec) added and incubated for 1 h. The plates were developed with 100 μl per well of TMB substrate (Uptima Interchim). After H₂SO₄ addition, the OD was measured at 450 nm/630 nmusing a MRX II microplate reader.
(An ELISA detects its analyte on a solid surface through an enzyme-linked reagent.)

Experiment [2] has as its target T1, human Clq. The experiment can be described thus: ELISA, MAb coated on plate, human Clq in solution, detected with anti-human Clq peroxidase conjugate; chR007 Fc0 is the weaker reference. Here is the method:
as §1

T1 sequence (P02745 23-245 limits assumed, chain 1 of 3): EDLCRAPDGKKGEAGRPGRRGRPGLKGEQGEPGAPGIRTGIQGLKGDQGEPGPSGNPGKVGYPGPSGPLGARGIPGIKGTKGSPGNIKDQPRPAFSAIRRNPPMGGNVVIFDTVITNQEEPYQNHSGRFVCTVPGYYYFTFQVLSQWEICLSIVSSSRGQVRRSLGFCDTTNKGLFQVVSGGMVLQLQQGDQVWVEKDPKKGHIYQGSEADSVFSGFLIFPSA
T1 sequence (P02746 28-253 limits assumed, chain 2 of 3): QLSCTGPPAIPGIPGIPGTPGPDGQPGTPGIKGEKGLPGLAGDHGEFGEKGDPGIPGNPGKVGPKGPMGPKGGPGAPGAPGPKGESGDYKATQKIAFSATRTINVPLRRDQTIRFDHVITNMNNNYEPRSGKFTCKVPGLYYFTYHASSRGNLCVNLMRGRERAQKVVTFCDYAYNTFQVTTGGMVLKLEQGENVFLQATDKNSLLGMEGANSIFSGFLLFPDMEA
T1 sequence (P02747 29-245 limits assumed, chain 3 of 3): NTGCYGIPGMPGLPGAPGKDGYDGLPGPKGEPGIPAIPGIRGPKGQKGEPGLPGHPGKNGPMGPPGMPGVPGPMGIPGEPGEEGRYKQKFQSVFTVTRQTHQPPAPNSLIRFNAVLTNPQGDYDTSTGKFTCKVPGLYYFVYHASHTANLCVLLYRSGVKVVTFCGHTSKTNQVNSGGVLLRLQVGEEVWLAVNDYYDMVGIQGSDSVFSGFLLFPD

B1: humanized 7Hz116 Fc24 (antibody, human IgG1, kappa, V domains shown)
VH: EVQLVESGGGLVQPGGSLKLSCAASGFTFSNYWMHWVRQASGKGLEWVAEIRSKANSYATAYAASVKGRFTISRDDSKNTAYLQMNSLKTEDTAVYYCTRDWEFAYWGQGTLVTVSS
VL: DIVMTQSPDSLAVSLGERATINCKSSQSVDNYGSSSLAWYQQKPGQPPKLLIYRASNLDSGVPDRFSGSGSGTDFTLTISSVQAEDVAVYYCQQSNEDLPYTFGQGTKLEIKR
On to B1, for which, in experiment [1], the binding result was “binds”.

B2: chR007 Fc24 (antibody, human IgG1, kappa)
heavy: EVKLEESGGGLVQPGGSMKLSCVASGFTFSNYWMNWVRQSPEKGLEWVAEIRLKSNNYATHYAESVKGRFTISRDDSRSSVYLQMNNLRAEDTGIYYCTRDWEFAYWGQGTLVTVSSASTKGPSVFPLAPSSKSTSGGTAALGCLVKDYFPEPVTVSWNSGALTSGVHTFPAVLQSSGLYSLSSVVTVPSSSLGTQTYICNVNHKPSNTKVDKKVEPKSCDKTHTCPPCPAPELLGGPSVFLLPPKPKDTLMISRTPEVTCVVVDVSHEDPEVKFNWYVDGVEVHNAKTKPPEEQYNSTLRVVSLLTVLHQDWLNGKEYKCKVSNAALPAPIAKTISKAKGQPREPQVYTLPPSRDELTKNQVSLTCLVKGFYPSDIAVEWESNGQPENNYKTTPLVLDSDGSFFLYSKLTVDKSRWQQGNVFSCSVMHEALHNHYTQKSLSLSPGK
light: DIVLTQSPASLAVSLGQRATISCRTSESVDNYGSSSMNWFQQKPGQPPKLLIYRASNLDSGIPARFSGSGSRSDFTLTINPVEADDVATYYCQQSNEDLPYTFGGGTKLEIKRTVAAPSVFIFPPSDEQLKSGTASVVCLLNNFYPREAKVQWKVDNALQSGNSQESVTEQDSKDSTYSLSSTLTLSKADYEKHKVYACEVTHQGLSSPVTKSFNRGEC
notes: also called chimeric chR007 Fc24
Consider B2, for which the binding result in experiment [1] is “binds”.

B3: chR007 Fc0 (antibody, human IgG1, kappa)
heavy: not shown
light: DIVLTQSPASLAVSLGQRATISCRTSESVDNYGSSSMNWFQQKPGQPPKLLIYRASNLDSGIPARFSGSGSRSDFTLTINPVEADDVATYYCQQSNEDLPYTFGGGTKLEIKRTVAAPSVFIFPPSDEQLKSGTASVVCLLNNFYPREAKVQWKVDNALQSGNSQESVTEQDSKDSTYSLSSTLTLSKADYEKHKVYACEVTHQGLSSPVTKSFNRGEC
notes: Chimeric anti-CD5 IgG1 with native human IgG1 Fc; also called native chimeric MAb chR007 Fc0
Turning to B3, in experiment [2], the binding result is listed as “binds”.

For the origin of these results see patent US20230159654A1 (INTERNATIONAL DRUG DEVELOPMENT BIOTECH, published 2023).
